In patent US10570381B2, “STEP-derived peptide for brain injury treatment” (STC.UNM, priority 2010, dated 2020):

B1: TAT-STEP peptide: constitutively active STEP-derived peptide fused to HIV-1 TAT protein transduction domain, myc-tagged; exact mutation set not stated here (protein)
chain: MALYGRKKRRQRRRGEEKVEDDFLDLDAVPETPVFDCVMDIKPETDPASLTVKSMGLQERRGANVSLTLDMCEPGCNEEGFGYLVEPREESAHEYLLSASRVLRAEELHEKALDPFLLQAE
modifications: Mouse
B2: TAT-STEP peptide of SEQ ID. No. 11: cell-permeable TAT-STEP peptide given intravenously in MCAO; figure legends call the treatment TAT-STEP-myc (protein)
chain: B1 chain
modifications: myc tag; Mouse

Key:
striatum = test: animal model of glutamate toxicity, stereotactic injection into the striatum; type: in vivo; details: injected stereotactically into the striatum prior to glutamate
cultured neurons [1] = test: oxygen-glucose deprivation (OGD), in vitro model of cerebral ischemia; type: cell-based; details: pre-incubation with peptide; OGD 2 hr; viability tested 24 hr later
Procedure: In subsequent experiments we used oxygen-glucose deprivation (OGD) as an in vitro model of cerebral ischemia to evaluate the role of TAT-STEP peptide in neuroprotection following an ischemic insult. Cultured neurons were submerged in glucose free buffer in a hypoxic chamber (oxygen-glucose deprivation or OGD) for 2 hr in the presence or absence of the peptide and cell viability was tested by Hoechsy DNA staining 24 hr later.

cultured neurons [2] = test: cell culture model of glutamate toxicity (Hoechst DNA staining); type: cell-based; details: transduction prior to or immediately after glutamate (100 μM, 30 min); staining 24 hr later
Excerpt: Using a cell culture model of glutamate toxicity we first investigated the functional significance of STEP's activation following excitotoxic NMDA receptor stimulation. […] As described in Poddar et al., 2010, using a substrate-trapping mutant we established that p38 MAPK is a substrate of STEP and the KIM domain of STEP is involved in STEP-p38 interaction. NR2B-NMDAR mediated activation of STEP promotes cell survival by down-regulating p38 MAPK signaling pathway. However sustained NMDAR stimulation results in degradation of active STEP leading to secondary activation of p38 MAPK that triggers cell death pathways. Based on these findings we generated a constitutively active form of a STEP peptide that can bind irreversibly to p38 MAPK. It was rendered cell permeable by fusion to the protein transduction domain of the human immunodeficiency virus-type I, TAT.

male Wistar rats = test: middle cerebral artery occlusion (MCAO) acute ischemic stroke model; type: in vivo, rat; details: intravenous, reperfusion 24 hr, vs saline, p<0.01
Procedure: FIG. 13 is a quantitative analysis of the infarct volume. Infarct volumes are expressed as a percentage of the contralateral (control) hemisphere and the data are mean +/− SEM (p<0.01).
FIG. 15 is a quantitative analysis of the infarct volume. Infarct volumes are expressed as a percentage of the contralateral (control) hemisphere and the data are mean +/− SEM (p<0.01).
Using an animal model of cerebral ischemia (middle cerebral artery occlusion for 90 min to generate embolic stroke followed by reperfusion for 24 hr), we evaluated whether degradation of active STEP contributes to neuronal cell death and subsequent brain damage and if the modified STEP peptide can mitigate ischemic brain damage. At first we examined the temporal profile of STEP's activation and subsequent degradation following cerebral ischemia and reperfusion and also evaluated its correlation with p38 MAPK activation. The findings show a rapid but transient increase in phosphorylation of p38 MAPK within 15 min of ischemic insult. This was followed by a time-dependent decrease in p38 phosphorylation from 30 min, which returned to basal levels by 90 min. […] As a consequence, active STEP limits the duration of activation of p38 MAPK. Progressive down regulation of active STEP through degradation is evident from ˜6 hours after reperfusion resulting in secondary activation of p38 MAPK. […]

Row | Molecule | glutamate-induced excitotoxic cell death in vivo (striatum) | OGD-induced cell death (Hoechst DNA staining) (cultured neurons [1]) | neuronal cell death as assessed by Hoechst DNA staining (cultured neurons [2]) | protection against ischemic brain injury (infarct volume, TTC staining) (male Wistar rats; 1.5 hr after onset of stroke (MCAO 90 min)) | protection against ischemic brain injury (infarct volume, TTC staining) (male Wistar rats; immediately before MCAO 90 min)
1 | B1 | could attenuate glutamate-induced excitotoxic cell death in vivo | significant reduction in OGD-induced cell death | blocked neuronal cell death | – | –
2 | B2 | – | – | – | significant protection against ischemic brain injury | significant protection against ischemic brain injury
